Source: patent publication US7906477B2, “Activation of peptide prodrugs by hK2” (Genspera, Inc., priority 2002, dated 2011)

Columns and labels:
[1] = tested on: T1, C[C@H](NC(=O)[C@H](CCCCN)NC(=O)CNC(=O)[C@@H](N)Cc1ccc(O)c([N+](=O)[O-])c1)C(=O)N[C@@H](Cc1ccccc1)C(=O)N[C@@H](CCCNC(=N)N)C(=O)N[C@@H](CCCNC(=N)N)C(=O)N[C@@H](CN)C(=O)N[C@@H](Cc1ccccc1)C(=O)N[C@@H](CCCCNC(=O)c1ccccc1N)C(=O)O; assay: hK2 mediated hydrolysis of peptide substrates in solution (fluorescence); type: biochemical, human; conditions: other: Lineweaver-Burke reciprocal plots; 37.0 °C
T1 construct: made in house
Description: FIG. 2 depicts a graph of hK2 mediated hydrolysis of peptide substrates identified through the screening of a random peptide library [Y′GKARAF-Dap-FK′ (SEQ ID NO:36), Y′GKAKPR-Dap-FK′ (SEQ ID NO:37), Y′GKAFRR-Dap-FK′ (SEQ ID NO:38), Y′GKAMRQ-Dap-FK′ (SEQ ID NO:39) and Y′GSKGHFKL-Dap-F-K′ (SEQ ID NO:40)]. Substrates (250 μM) were incubated with 8 μg/ml hK2 in PBS buffer. Hydrolysis of peptide results in increased fluorescence, as measured using a 96 well fluorometer. […] To determine 100% digestion, trypsin was added (50 mg/ml) and samples were incubated to 37° C. for 30 min and the fluorescence was determined. The percentage digested is determined by dividing fluorescence units of sample by fluorescence units of control fully digested peptide.
A mutant form of hK2 was utilized in which the amino acids −5 to −1 of the propeptide sequence of hK2 (i.e. Leu-Ile-Gln-Ser-Arg; SEQ ID NO:15) were mutated to Asp-Asp-Asp-Asp-Lys (SEQ ID NO:16) to generate a pro-hK2 protein that can be activated to functional hK2 by […] (Lovgren, J. et al. (1999) Eur. J. Biochem. 266:1050-1055). […]
For validation of the Edman results, peptides were re-synthesized using a Rainin PS3 peptide synthesizer with HBTU/NMM activation. […] Fluorescence measurements were performed on a Fluoroskan II 96-well plate reader (ICN biomedicals, Costa Mesa, Calif.; excitation, 355 nm; emission, 460 nm). Kinetic parameters were calculated as described earlier (Denmeade, S. R. et al. (1997) Cancer Res. 57:4924-4930).
The combinatorial screen identified seven arginine-containing peptides. […] All four arginine-containing sequences that were re-synthesized reproduced fluorescence when these peptides were digested on-bead with hK2. For a more quantitative analysis, the fluorescence-quenched peptides were cleaved off the resin and purified by HPLC. The rate of hydrolysis was quantified by measuring increase in fluorescence (Figure). […] In subsequent studies, hydrolysis rates using the Y′GKAFRR-Dap-F-K′ (SEQ ID NO:38) peptide were analyzed by Lineweaver-Burke reciprocal plots.

[2] = tested on: T2, Cc1cc(=O)oc2cc(NC(=O)[C@H](CCCNC(=N)N)NC(=O)[C@H](Cc3ccccc3)NC(=O)[C@H](C)NC(=O)[C@H](CCCCN)NC(=O)CN)ccc12; assay: as above; type: biochemical, human; conditions: other: Lineweaver-Burke reciprocal plots; 37.0 °C
T2 construct: made in house

hK2 (Homo sapiens)
Km [1]: 26.5 µM | kcat [1]: 1.09 s⁻¹ | kcat/Km [1]: 41,132 sec^−1 M^−1 | Km [2]: 146 µM | kcat [2]: 0.13 s⁻¹ | kcat/Km [2]: 895 M⁻¹ s⁻¹
